Results published in the supplement of paper PMC5998384.

How the values were obtained:
[1] = system: HeLa Kyoto; assay: melting temperature (median over replicates), in situ; higher = more thermally stable
[2] = system: HeLa Kyoto; assay: thermal stability score vs G1/S (z-score of summed log2 fold changes over temperatures); higher = more thermally stable than in G1/S
[3] = system: HeLa Kyoto; assay: solubility in G1/S (NP-40 vs SDS abundance) (log2 ratio); higher = more soluble; details: cell cycle stage: G1/S
[4] = system: HeLa Kyoto; assay: solubility change mitosis vs G1/S (difference of NP-40 vs SDS log2 ratios) (log2 ratio difference); higher = more soluble in mitosis
[5] = cell cycle stage: early G1 (4.5 h after nocodazole release)
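For melting temperature (median over replicates), in situ in this document: HeLa Kyoto cells synchronized by double thymidine or nocodazole block, proteins quantified by TMT10plex mass spectrometry, three independent biological replicates.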
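For solubility change mitosis vs G1/S (difference of NP-40 vs SDS log2 ratios) in this document: synchronized HeLa Kyoto cells (double thymidine block for G1/S, nocodazole release for mitosis), protein amounts in NP-40 versus SDS lysates quantified by mass spectrometry, three biological replicates.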
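For solubility in G1/S (NP-40 vs SDS abundance) in this document: HeLa Kyoto cells arrested at G1/S by double thymidine block, proteins quantified by TMT10plex mass spectrometry in mild NP-40 versus SDS extracts, three biological replicates.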
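For thermal stability score vs G1/S (z-score of summed log2 fold changes over temperatures) in this document: synchronized HeLa Kyoto cells, proteins quantified by TMT10plex mass spectrometry, three biological replicates, mitosis taken 0.5 h after nocodazole release, G1/S directly after double thymidine block.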

MLDFAIFAVTFLLALVGAVLYLYPASRQAAGIPGITPTEEKDGNLPDIVNSGSLHEFLVNLHERYGPVVSFWFGRRLVVSLGTVDVLKQHINPNKTSDPFETMLKSLLRYQSGGGSVSENHMRKKLYENGVTDSLKSNFALLLKLSEELLDKWLSYPETQHVPLSQHMLGFAMKSVTQMVMGSTFEDDQEVIRFQKNHGTVWSEIGKGFLDGSLDKNMTRKKQYEDALMQLESVLRNIIKERKGRNFSQHIFIDSLVQGNLNDQQILEDSMIFSLASCIITAKLCTWAICFLTTSEEVQKKLYEEINQVFGNGPVTPEKIEQLRYCQHVLCETVRTAKLTPVSAQLQDIEGKIDRFIIPRETLVLYALGVVLQDPNTWPSPHKFDPDRFDDELVMKTFSSLGFSGTQECPELRFAYMVTTVLLSVLVKRLHLLSVEGQVIETKYELVTSSREEAWITVSKRY [CYP20A1]
melting temperature ([1]; cell cycle stage: G1/S): 54.4 °C
melting temperature ([1]; cell cycle stage: mitosis): 55.1 °C
thermal stability score [2, 5]: 0.229
thermal stability score ([2]; cell cycle stage: mitosis): -1.11
solubility in G1/S (log2) [3]: -0.178
solubility change mitosis (log2) [4]: -0.0969

MLDFLAENNLCGQAILRIVSCGNAIIAELLRLSEFIPAVFRLKDRADQQKYGDIIFDFSYFKGPELWESKLDAKPELQDLDEEFRENNIEIVTRFYLAFQSVHKYIVDLNRYLDDLNEGVYIQQTLETVLLNEDGKQLLCEALYLYGVMLLVIDQKIEGEVRERMLVSYYRYSAARSSADSNMDDICKLLRSTGYSSQPGAKRPSNYPESYFQRVPINESFISMVIGRLRSDDIYNQVSAYPLPEHRSTALANQAAMLYVILYFEPSILHTHQAKMREIVDKYFPDNWVISIYMGITVNLVDAWEPYKAAKTALNNTLDLSNVREQASRYATVSERVHAQVQQFLKEGYLREEMVLDNIPKLLNCLRDCNVAIRWLMLHTADSACDPNNKRLRQIKDQILTDSRYNPRILFQLLLDTAQFEFILKEMFKQMLSEKQTKWEHYKKEGSERMTELADVFSGVKPLTRVEKNENLQAWFREISKQILSLNYDDSTAAGRKTVQLIQALEEVQEFHQLESNLQVCQFLADTRKFLHQMIRTINIKEEVLITMQIVGDLSFAWQLIDSFTSIMQESIRVNPSMVTKLRATFLKLASALDLPLLRINQANSPDLLSVSQYYSGELVSYVRKVLQIIPESMFTSLLKIIKLQTHDIIEVPTRLDKDKLRDYAQLGPRYEVAKLTHAISIFTEGILMMKTTLVGIIKVDPKQLLEDGIRKELVKRVAFALHRGLIFNPRAKPSELMPKLKELGATMDGFHRSFEYIQDYVNIYGLKIWQEEVSRIINYNVEQECNNFLRTKIQDWQSMYQSTHIPIPKFTPVDESVTFIGRLCREILRITDPKMTCHIDQLNTWYDMKTHQEVTSSRLFSEIQTTLGTFGLNGLDRLLCFMIVKELQNFLSMFQKIILRDRTVQDTLKTLMNAVSPLKSIVANSNKIYFSAIAKTQKIWTAYLEAIMKVGQMQILRQQIANELNYSCRFDSKHLAAALENLNKALLADIEAHYQDPSLPYPKEDNTLLYEITAYLEAAGIHNPLNKIYITTKRLPYFPIVNFLFLIAQLPKLQYNKNLGMVCRKPTDPVDWPPLVLGLLTLLKQFHSRYTEQFLALIGQFICSTVEQCTSQKIPEIPADVVGALLFLEDYVRYTKLPRRVAEAHVPNFIFDEFRTVL [KIAA0196]
melting temperature ([1]; cell cycle stage: G1/S): 50.7 °C
melting temperature ([1]; cell cycle stage: mitosis): 50 °C
thermal stability score [2, 5]: 0.232
thermal stability score ([2]; cell cycle stage: mitosis): -0.00652
solubility in G1/S (log2) [3]: -0.217
solubility change mitosis (log2) [4]: -0.117

MLERPPALAMPMPTEGTPPPLSGTPIPVPAYFRHAEPGFSLKRPRGLSRSLPPPPPAKGSIPISRLFPPRTPGWHQLQPRRVSFRGEASETLQSPGYDPSRPESFFQQSFQRLSRLGHGSYGEVFKVRSKEDGRLYAVKRSMSPFRGPKDRARKLAEVGSHEKVGQHPCCVRLEQAWEEGGILYLQTELCGPSLQQHCEAWGASLPEAQVWGYLRDTLLALAHLHSQGLVHLDVKPANIFLGPRGRCKLGDFGLLVELGTAGAGEVQEGDPRYMAPELLQGSYGTAADVFSLGLTILEVACNMELPHGGEGWQQLRQGYLPPEFTAGLSSELRSVLVMMLEPDPKLRATAEALLALPVLRQPRAWGVLWCMAAEALSRGWALWQALLALLCWLWHGLAHPASWLQPLGPPATPPGSPPCSLLLDSSLSSNWDDDSLGPSLSPEAVLARTVGSTSTPRSRCTPRDALDLSDINSEPPRGSFPSFEPRNLLSLFEDTLDPT [PKMYT1]
melting temperature ([1]; cell cycle stage: G1/S): 48.7 °C
melting temperature ([1]; cell cycle stage: mitosis): 49 °C
thermal stability score [2, 5]: 0.535
thermal stability score ([2]; cell cycle stage: mitosis): 0.495
solubility in G1/S (log2) [3]: 0.406
solubility change mitosis (log2) [4]: -0.332

MLETLRERLLSVQQDFTSGLKTLSDKSREAKVKSKPRTVPFLPKYSAGLELLSRYEDTWAALHRRAKDCASAGELVDSEVVMLSAHWEKKKTSLVELQEQLQQLPALIADLESMTANLTHLEASFEEVENNLLHLEDLCGQCELERCKHMQSQQLENYKKNKRKELETFKAELDAEHAQKVLEMEHTQQMKLKERQKFFEEAFQQDMEQYLSTGYLQIAERREPIGSMSSMEVNVDMLEQMDLMDISDQEALDVFLNSGGEENTVLSPALGPESSTCQNEITLQVPNPSELRAKPPSSSSTCTDSATRDISEGGESPVVQSDEEEVQVDTALATSHTDREATPDGGEDSDS [DTNBP1]
melting temperature ([1]; cell cycle stage: G1/S): 54.1 °C
thermal stability score [2, 5]: -0.457
thermal stability score ([2]; cell cycle stage: mitosis): -0.463
solubility in G1/S (log2) [3]: 0.267
solubility change mitosis (log2) [4]: -0.387

MLGAWAVEGTAVALLRLLLLLLPPAIRGPGLGVAGVAGAAGAGLPESVIWAVNAGGEAHVDVHGIHFRKDPLEGRVGRASDYGMKLPILRSNPEDQILYQTERYNEETFGYEVPIKEEGDYVLVLKFAEVYFAQSQQKVFDVRLNGHVVVKDLDIFDRVGHSTAHDEIIPMSIRKGKLSVQGEVSTFTGKLYIEFVKGYYDNPKVCALYIMAGTVDDVPKLQPHPGLEKKEEEEEEEEYDEGSNLKKQTNKNRVQSGPRTPNPYASDNSSLMFPILVAFGVFIPTLFCLCRL [MLEC]
melting temperature ([1]; cell cycle stage: G1/S): 53.7 °C
melting temperature ([1]; cell cycle stage: mitosis): 53.6 °C
thermal stability score [2, 5]: 1.83
thermal stability score ([2]; cell cycle stage: mitosis): 2.38
solubility in G1/S (log2) [3]: -0.0175
solubility change mitosis (log2) [4]: -0.0845

MLGFITRPPHRFLSLLCPGLRIPQLSVLCAQPRPRAMAISSSSCELPLVAVCQVTSTPDKQQNFKTCAELVREAARLGACLAFLPEAFDFIARDPAETLHLSEPLGGKLLEEYTQLARECGLWLSLGGFHERGQDWEQTQKIYNCHVLLNSKGAVVATYRKTHLCDVEIPGQGPMCESNSTMPGPSLESPVSTPAGKIGLAVCYDMRFPELSLALAQAGAEILTYPSAFGSITGPAHWEVLLRARAIETQCYVVAAAQCGRHHEKRASYGHSMVVDPWGTVVARCSEGPGLCLARIDLNYLRQLRRHLPVFQHRRPDLYGNLGHPLS [NIT1]
melting temperature ([1]; cell cycle stage: G1/S): 54.7 °C
melting temperature ([1]; cell cycle stage: mitosis): 55.1 °C
thermal stability score [2, 5]: -1.82
thermal stability score ([2]; cell cycle stage: mitosis): -2.71
solubility in G1/S (log2) [3]: 0.248
solubility change mitosis (log2) [4]: -0.133

MLGIWTLLPLVLTSVARLSSKSVNAQVTDINSKGLELRKTVTTVETQNLEGLHHDGQFCHKPCPPGERKARDCTVNGDEPDCVPCQEGKEYTDKAHFSSKCRRCRLCDEGHGLEVEINCTRTQNTKCRCKPNFFCNSTVCEHCDPCTKCEHGIIKECTLTSNTKCKEEGSRSNLGWLCLLLLPIPLIVWVKRKEVQKTCRKHRKENQGSHESPTLNPETVAINLSDVDLSKYITTIAGVMTLSQVKGFVRKNGVNEAKIDEIKNDNVQDTAEQKVQLLRNWHQLHGKKEAYDTLIKDLKKANLCTLAEKIQTIILKDITSDSENSNFRNEIQSLV [FAS]
melting temperature ([1]; cell cycle stage: G1/S): 54.1 °C
melting temperature ([1]; cell cycle stage: mitosis): 54.4 °C
thermal stability score [2, 5]: -0.244
thermal stability score ([2]; cell cycle stage: mitosis): -1.13
solubility in G1/S (log2) [3]: 0.525
solubility change mitosis (log2) [4]: 0.0304

MLGLLVALLALGLAVFALLDVWYLVRLPCAVLRARLLQPRVRDLLAEQRFPGRVLPSDLDLLLHMNNARYLREADFARVAHLTRCGVLGALRELRAHTVLAASCARHRRSLRLLEPFEVRTRLLGWDDRAFYLEARFVSLRDGFVCALLRFRQHLLGTSPERVVQHLCQRRVEPPELPADLQHWISYNEASSQLLRMESGLSDVTKDQ [THEM6]
melting temperature ([1]; cell cycle stage: G1/S): 55.3 °C
melting temperature ([1]; cell cycle stage: mitosis): 53.8 °C
thermal stability score [2, 5]: -1.92
thermal stability score ([2]; cell cycle stage: mitosis): -2.82
solubility in G1/S (log2) [3]: -0.64
solubility change mitosis (log2) [4]: -0.052
